Experimental data as given in publication PMC8891371.

Assays:
[1] = biological target: axolotl Melanocortin-3 receptor, N-terminally 3×HA tagged (Ambystoma mexicanum (Mexican axolotl))
[2] = biological target: axolotl Melanocortin-4 receptor, N-terminally 3×HA tagged (Ambystoma mexicanum (Mexican axolotl))

| cAMP luminescent assay (pCRE-Luc, Dual-Glo) in HEK293T, logEC50; MC3R:MRAP2 plasmid ratio 1:0 [1] [log M] | cAMP luminescent assay (pCRE-Luc, Dual-Glo) in HEK293T, logEC50; MC3R:MRAP2 plasmid ratio 1:1 [1] [log M] | cAMP luminescent assay (pCRE-Luc, Dual-Glo) in HEK293T, logEC50; MC3R:MRAP2 plasmid ratio 1:3 [1] [log M] | cAMP luminescent assay (pCRE-Luc, Dual-Glo) in HEK293T, logEC50; MC3R:MRAP2 plasmid ratio 1:6 [1] [log M] | cAMP luminescent assay (pCRE-Luc, Dual-Glo) in HEK293T, logEC50; MC4R:MRAP2 plasmid ratio 1:0 [2] [log M] | cAMP luminescent assay (pCRE-Luc, Dual-Glo) in HEK293T, logEC50; MC4R:MRAP2 plasmid ratio 1:1 [2] [log M] | cAMP luminescent assay (pCRE-Luc, Dual-Glo) in HEK293T, logEC50; MC4R:MRAP2 plasmid ratio 1:3 [2] [log M] | cAMP luminescent assay (pCRE-Luc, Dual-Glo) in HEK293T, logEC50; MC4R:MRAP2 plasmid ratio 1:6 [2] [log M] | Substance |
| --- | --- | --- | --- | --- | --- | --- | --- | --- |
| -9.95 | -9.29 | -9.04 | -8.98 | -9.84 | -10 | -9.37 | -9.06 | Human α-melanocyte stimulating hormone (peptide) |
| -9.51 | -9.47 | -9.4 | -9.55 | -9.62 | -10.1 | -10.1 | -10.3 | human adrenocorticotropin ACTH (1–24) (peptide) |
